Assay results: the nanobody polyreactivity screen of Harvey et al. (2022)

test: yeast display, Sf9 membrane polyspecificity reagent, FACS + sequencing; frameworks hold sequencing errors
Summary of the method: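 A nanobody's polyreactivity label depends on the gate it was sorted from. Yeast display cells were stained with 10% biotinylated, detergent-solubilized Sf9 membrane reagent for 1 hour at 4 °C, enriched on streptavidin microbeads and sorted by FACS. The low and high (top ~1%) gates were set on anti-HA fluorescence for expression and streptavidin fluorescence for reagent binding.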

| Sequence | polyreactivity (PSR sort gate) |
| --- | --- |
| QVQLVESGVGLVQAGGSLRLSCAASGSTLFVYAMGRYRQAPGKERELVAAISRGGSTYYADSVKGRFTISRDNAKNTVYLQMNSLKPEDTAVYYCAAVGGYPRYGYWGQGTQVTVSS | high polyreactivity |
| QVQLVESGVGLVQAGGSLRLSCAASGSTLFVYTKGWSRQAPGKERELVAAITSSGGSTYYADSVKGRFTISRDKAKNTVYLQMNSLKAQDTAVYYCAAKELGSPYDYWGQGTQVTVSS | high polyreactivity |
| QVQLVESGVGLVQAGGSLRLSCAASGTTIVSYAMGWYRQAPGKEMEFVATISISGTSTYYADSVKGRFTISRDNAKNTVYLQMNSLKPEDTAVYYCAARLRPRGATQFYRYDYWGQGTQVTVSS | high polyreactivity |
| QVQLVESGVGLVQAGGSLRLSCAASGYTIDWYTMGWYRQAPGKERELVAAISASGVRTYYADSVKGRFTISRDNAKNTVYLQMNSLKPEDTGVYYCNRVYSTSRITQYEFDYWGQGTQVTLSS | low polyreactivity |
| QVQLVESGVGLVQAGGSLRLSCAASGYTLDNYAMGWYRQAPGKERELVAGITFSGGSTFYADSVKGRFTISRDNAKNTVYLQMNSLKPEDTAVYYCAADAEFQADHKYGYWGQGTQVTVSS | low polyreactivity |
| QVQLVESGVGLVQAGGSLRLSCAPSGRIFGTYAMVWYRQAPGKERELVASITDRGDSTYADSVKGRFTISRDNAKNTVYLQMNSLKPEDTAVYYCAADGWWHNFYPGTGLDYWGQGTQVTVSS | low polyreactivity |
| QVQLVESGVGLVQAGGSLSITCAASGRTFAGNSMGSYRQAPGKERELVAAISQGGGSTYYADSVKGRFTISRDNAKNTVYLQMNSRKAEDTAVYYCAAEIPRRWASFATQWYDYWGLGTQVTVSS | low polyreactivity |
| QVQLVESGVGLVQAGGSVRLSCAASGFTFGYYAMGWYRQAPGKERELVASISSVDNTYYADSVKGRFTISRDNAKNTVYLQMNSLKPEDTAVYYCAARYRDYFVRGGYWGQGTQVTVSS | high polyreactivity |
| QVQLVESGVGLVQAGGSVRLSCAASGSIFSINAMGWYRQAPGKERELVAAISASGGSTYYADSVKGRFTISRDNAKNTVYLQMNSLKPEDTAVYYCAVYTHDRFSRYDQGDYWGQATQVTVSS | low polyreactivity |
| QVQLVESGVGLVQAGGTLRISCAASGSTLPGYAMGWYRPAPGKERELVAAITSRGGTTYYADSVKGRFTISRDNAKNTVYLQMNSLKPEDTAVYYCAAEVYYRSRVYPYYYSYDYWGQGTQVTVSS | high polyreactivity |
| QVQLVESGVGLVQAGGTLRLSCAASGIIISRYTMGWYRQAPGKERELVAAITSSGITYYADSVKGRFTISRDNAKNTVYLQLNSLKPEDTAVYYCARETYGDYVHYDYWGLGTQVTVSS | low polyreactivity |
| QVQLVESGVGLVQAGRRLRLSCAASGFIFAWNGMGWYRKAPGKERELVAAISWSGGSTYYAVSVKGRFTISRDNEKNTVYLLMNTLKPEETAVYYCYRSWGSRPGSRLEYWGQGTQVTVSS | high polyreactivity |
| QVQLVESGVGLVQAGRSLRLSCAASGRTFVQYAMGWYRQAPGKERELVARISRRGGSTYYADSVKGRFTISRDKAKNSVYLQMNSLKPEDTAVYYFAADAYPYWYDYWGQGTQVTVSS | high polyreactivity |
| QVQLVESGVGLVQAGVILRLSCAASGRTFRRNAMGWYRHAPGKERELVAAISWRGGSTYYADSVKGRFTISRDNAKNTVYLQLNSMKPEDTAVYYFAAGFESYDYWGQGTQVTVSS | high polyreactivity |
| QVQLVESGVRLLQAGGSLRLSCAASGITSDDNTMGWYRQAPGKERELVARIRRTGGGTYYADSVKGRFTISRDNAKNTVYLQINSLKPEDSAVYYCAAVPSWGYRFNRVPYLWVDYWGQGTQVTVSS | low polyreactivity |
| QVQLVESGVRLVQAGGSLLLSCAASGFTFHKNDMGWYRQAPGKERELVATISKSGGSTYYADSVKGRFTISRDNAMNTVYLQMNSLKPEDTAVYYCARRYRDYGRYGYWGQGTQVTVSS | high polyreactivity |

| Sequence | polyreactivity (PSR sort gate) |
| --- | --- |
| QVQLVESGVRLVQAGGSLRLSCAASGSIFAKYTMGWYRPAPGKERELVAAITRSGTSTRYADSVKGRFTISRDNAKNTVYLQLNSLKPEDTAVYYCAASLYSWGQGTQVTVSS | high polyreactivity |
| QVQLVESGVVLVQAGGSLRLSCAASGRIFRYYVMGWYRQAPGKERELVAAITNDGGNTNYADSVKGRFTISRDNEKNTVYLQMNSLKPEDTAVYYCNADRTHDRNPYTYATFDYWGQGTQVTVSS | low polyreactivity |
| QVQLVESLGGLVQAGGRLRLSSAASGLIFPRNAMGWYRQAPGKERELVAVISRSGTTTYYADSVKGRFTISRDNAKKTVYFQMNSLIPEDTAVYYCASAPSHVYRARFYYWGQGTQVTVSS | high polyreactivity |
| QVQLVESRGCLVQAGGSLRLSCSASGYIFVYYAMGWYRQAPGKEWELVAAISRGGSTYYADSVKGRFTISRDNAKNTVYLQMNSLKPEDTAVYYCNKVLPYGREYGYCGQGTQVTVSS | high polyreactivity |
| QVQLVESRGGIVQAGGSLRLSCAASGRIFGWYAMGWYRQAPGKERELVAAITSSVGRTYYADSVKGRFTISRDNAKNTVYLQMNSLKPEDTAVYYCAKDLYTYYYFEYDYWGQGTQVTVSS | low polyreactivity |
| QVQLVESRGGLVLAGGSLRLSCAASGSIFPSYAMGWYRQAPGKERELVASISYRGGSTYYADSVKGRFTISRDNAKNTVYLQMNSLKPEDTAVYYCAATKERYYGWSRLTGYYRGNYWGQGTQVTVSS | high polyreactivity |
| QVQLVESRGGLVPAGGSLRLSCAASGSTVRDYTMGRYRQAPGKEREVGAAITRRSASTYYADSVKGRFTISRDNAKNTVYLQLNSLKPEDTAVYYCAVRTNGPFEYWGQGTQVTVSS | high polyreactivity |
| QVQLVESRGGLVQAGGSLGLSCAASGSTFGYYAMGWYRQAPGKERELVAGISTGGSTYYAYSVKGRFTISRDNAKNTVYFQINSLKPDDTAVYYCAATRYNRWPIKFDYWGQGTQVTVSS | high polyreactivity |
| QVQLVESRGGLVQAGGSLRLSCAASGFIFTRYVMGWYRQAPGKERELVAGISTRGARTYYADSVKGRFTISRDNAKNTVYLQIHSLTPEDTAVYYCNKDWSRGWNYEYDYWGQGTQVTVSS | high polyreactivity |
| QVQLVESRGGLVQAGGSLRLSCAASGFILVIYAMGWYRQAPRKERELVAAITSDGSTNYADSVKGRFTISRDNAKNSVYLQMNSLKPEDTAVYYCAADAVNPLDYWGLGTQVTVSS | low polyreactivity |
| QVQLVESRGGLVQAGGSLRLSCAASGFTFGNYAMGWYRQAPGKEREMVAAISWSGGSTYNADSVKGRFTISRDNAKKTVYLQMNSLKPEDTAVYYCNAIRGSLWESDYWGQGTQVTVSS | high polyreactivity |
| QVQLVESRGGLVQAGGSLRLSCAASGLIFLHNAMGWYRQAPGKERELVAAIRDGDSTNYADSVKGRFTISRDNAKNTVYLQMNSLKPEDTAVYYCAKDPTLVAYAPGRYDYWGQGTQVTVSS | low polyreactivity |
| QVQLVESRGGLVQAGGSLRLSCAASGLNFSYYAMGWYRQAPGKERELVAAIDWNSGSTYYADSVKGRFTISRDNAKNTVYLQMNSLKPEDTAVYYCAAYGSFWYARFGYWGQGTQVTVSS | low polyreactivity |
| QVQLVESRGGLVQAGGSLRLSCAASGRIFAYYAKGWYRPAPGKERELVAAIRGSGGSTYYAESVKGRFTISRDNAKNTVYLQMNSLKPEDTAVYYCAARTQPKKFYYWGQGTQVTVSS | high polyreactivity |
| QVQLVESRGGLVQAGGSLRLSCAASGRIFLRNAMVWYRQAPGKERELVASIDRSGGSTYYADSVKGRFTISRDNAKNTVYLQMNSLKPEDTAVYYCAAAYWYLYYYWGQGTQVTVAS | low polyreactivity |
| QVQLVESRGGLVQAGGSLRLSCAASGRIFRYYAMGWYRQAPGKERELVAAITWRGGNTRYADSVKGRFTISRDNAKNTVYLPMNSLKTEDTAVYYCAARGQSAYSIWSYYYWGQGTQVTVSS | high polyreactivity |
